From patent US20250136710A1 (COMPUGEN, published 2025)

T1: PVRL2 (human, UniProt Q92692 32-360, limits assumed)
T1 construct: also called PVLR2; CD112
T1 sequence (looked up): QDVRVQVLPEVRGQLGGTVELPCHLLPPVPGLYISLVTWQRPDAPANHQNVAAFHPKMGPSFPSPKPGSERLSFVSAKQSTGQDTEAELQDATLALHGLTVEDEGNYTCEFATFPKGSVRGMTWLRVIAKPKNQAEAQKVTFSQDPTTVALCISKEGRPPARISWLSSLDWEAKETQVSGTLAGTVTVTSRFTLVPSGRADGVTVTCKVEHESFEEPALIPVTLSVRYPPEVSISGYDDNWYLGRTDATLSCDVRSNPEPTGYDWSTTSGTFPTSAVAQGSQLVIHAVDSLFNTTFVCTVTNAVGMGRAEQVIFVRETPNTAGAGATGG

T2: PVR (UniProt P15151 21-343, limits assumed)
T2 construct: also called poliovirus receptor; CD155
T2 sequence (looked up): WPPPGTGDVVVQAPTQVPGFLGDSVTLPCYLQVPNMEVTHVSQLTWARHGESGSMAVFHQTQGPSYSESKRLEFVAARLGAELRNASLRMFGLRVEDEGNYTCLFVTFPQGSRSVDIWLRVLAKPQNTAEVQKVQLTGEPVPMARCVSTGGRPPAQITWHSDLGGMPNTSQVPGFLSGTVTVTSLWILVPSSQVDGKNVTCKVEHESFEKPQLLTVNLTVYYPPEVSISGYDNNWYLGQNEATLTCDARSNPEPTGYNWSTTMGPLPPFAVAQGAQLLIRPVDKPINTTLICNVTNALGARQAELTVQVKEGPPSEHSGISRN


Columns and labels:
PVRL2 = target: T1, PVRL2; assay: not described at this place
PVR = target: T2, PVR; assay: not described at this place

Binder	binding result (PVRL2)	binding result (PVR)
PVRIG (receptor, human, UniProt Q6DKI7 41-171, looked up, also called CD112R; Human Poliovirus Receptor Related Immunoglobulin Domain Containing Protein) TPEVWVQVRMEATELSSFTIRCGFLGSGSISLVTVSWGGPNGAGGTTLAVLHPERGIRQWAPARQARWETQSSISLILEGSGASSPCANTTFCCKFASFPEGSWEACGSLPPSSDPGLSAPPTPAPILRAD	binds	
TIGIT (receptor, human, UniProt Q495A1 22-141, looked up, also called human TIGIT) MMTGTIETTGNISAEKGGSIILQCHLSSTTAQVTQVNWEQQDQLLAICNADLGWHISPSFKDRVAPGPGLGLTLQSLTVNDTGEYFCIYHTYPDGTYTGRIFLEVLESSVAEHGARFQIP		binds
